Reference: publication PMC12102759

B1: KIAA1671 peptide 600-615 (Uncharacterized protein KIAA1671), 16-mer library wild type / MDM2 SWIB (MDM2 SWIB/MDM2 domain, residues 17-125) (parent)
chain 1: TPEDDRSFQTVWATVF
chain 2: SQIPASEQETLVRPKPLLLKLLKSVGAQKDTYTMKEVLFYLGQYIMTKRLYDEKQQHIVYCSNDLLGDLFGVPSFSVKEHRKIYTMIYRNLVVVNQQESSDSGTSVSEN

Variants of: B1
Experiment: proteomic peptide phage display deep mutational scan (ProP-PD DMS): M13 P8 16-mer library selected against immobilised GST-tagged bait for four days (rounds), NGS of the eluted pools per day and pseudo-replica
Conditions: with MDM2 SWIB (MDM2 SWIB/MDM2 domain, residues 17-125); bait immobilised on MaxiSorp plates (10 µg), library pre-cleared on GST, 2 h binding at 4 °C, five washes; one round per day, days 1-4; value from days 2 and 3; keep out of graded; scale: average fractional NGS count over selection days 2 and 3
Variant chain 1 R6L has a screen value of 0.000264. chain 1 R6E was tested, and the screen value was 6.31e-05. chain 1 R6Y gave a screen value of 0.000693. With chain 1 R6Q the screen value was 0.000155. For chain 1 R6A, the screen value was 0.000223. With chain 1 R6W the screen value was 0.0002. Variant chain 1 R6K has a screen value of 0.000243. chain 1 R6V showed a screen value of 0.000461. Variant chain 1 R6I has a screen value of 0.000114. Variant chain 1 R6S has a screen value of 0.00021. For chain 1 R6G, the screen value was 9.01e-05. For chain 1 A13G, the screen value was 0. chain 1 A13D gave a screen value of 1.83e-05. chain 1 A13H gave a screen value of 0.000327. Variant chain 1 A13S has a screen value of 0.000227. For chain 1 A13L, the screen value was 9.44e-05. chain 1 A13I was tested, and the screen value was 0.000104. chain 1 A13M was tested, and the screen value was 0.000146. For chain 1 A13Q, the screen value was 5.55e-05. Work on chain 1 A13R yielded a screen value of 5.94e-05. For chain 1 A13V, the screen value was 4.31e-05. Variant chain 1 A13P has a screen value of 0. chain 1 A13N was tested, and the screen value was 0.000173. chain 1 A13W showed a screen value of 0.000391. Work on chain 1 A13T yielded a screen value of 0.00011. Variant chain 1 D4P has a screen value of 0.000107. Work on chain 1 D4A yielded a screen value of 0.00011. Work on chain 1 D4N yielded a screen value of 1.9e-05. chain 1 D4M was tested, and the screen value was 4.28e-05. chain 1 D4G was tested, and the screen value was 0.000914. chain 1 D4Y was tested, and the screen value was 2.12e-05. chain 1 D4S was tested, and the screen value was 0.0004. Variant chain 1 D4Q has a screen value of 0.000505. In the case of chain 1 D4V, the screen value is reported as 0.000129. Work on chain 1 D4T yielded a screen value of 0.00033. In the case of chain 1 P2M, the screen value is reported as 0.000288. Work on chain 1 P2E yielded a screen value of 6.83e-05. chain 1 P2I gave a screen value of 0.000159. Work on chain 1 P2R yielded a screen value of 3.9e-05. chain 1 P2V gave a screen value of 3.63e-05. With chain 1 P2D the screen value was 6.18e-05. For chain 1 P2L, the screen value was 6.52e-05. In the case of chain 1 P2T, the screen value is reported as 0.000455. chain 1 P2G gave a screen value of 0.000243. chain 1 P2H gave a screen value of 4.89e-05. chain 1 P2Y gave a screen value of 0.000913. In the case of chain 1 P2Q, the screen value is reported as 9.58e-05. chain 1 P2S gave a screen value of 7.3e-05. chain 1 P2F gave a screen value of 5.33e-05. With chain 1 P2A the screen value was 8.35e-05. chain 1 W12R gave a screen value of 0. chain 1 W12N showed a screen value of 0. chain 1 W12D was tested, and the screen value was 0. chain 1 W12K gave a screen value of 9.9e-05. Variant chain 1 W12T has a screen value of 9.54e-05. Work on chain 1 V11H yielded a screen value of 0.0015. For chain 1 V11L, the screen value was 0.000339. Work on chain 1 V11N yielded a screen value of 0. With chain 1 V11M the screen value was 0.000226. chain 1 V11A gave a screen value of 0. Work on chain 1 V11Q yielded a screen value of 0.00061. chain 1 V11T showed a screen value of 0. chain 1 V11F showed a screen value of 0.000216. For chain 1 V11I, the screen value was 0.00157. Variant chain 1 V11Y has a screen value of 0.000214. Variant chain 1 V11E has a screen value of 0. Work on chain 1 V11W yielded a screen value of 0.00167. With chain 1 T14W the screen value was 0.000103. Work on chain 1 T14G yielded a screen value of 5.64e-05. With chain 1 T14D the screen value was 9.35e-05. chain 1 T14M showed a screen value of 0.00063. With chain 1 T14S the screen value was 0.000516. chain 1 T14A was tested, and the screen value was 2.89e-05. In the case of chain 1 T14N, the screen value is reported as 0.000664. Variant chain 1 T14I has a screen value of 3.81e-05. With chain 1 T14R the screen value was 0.00282. In the case of chain 1 T14V, the screen value is reported as 1.9e-05. Variant chain 1 T14H has a screen value of 4.28e-05. For chain 1 T14Q, the screen value was 3.86e-05. chain 1 T14Y was tested, and the screen value was 0.000108. Work on chain 1 T14E yielded a screen value of 0.000268. For chain 1 Q9P, the screen value was 7.92e-05. chain 1 Q9T was tested, and the screen value was 4.79e-05. Work on chain 1 Q9A yielded a screen value of 0.000111. Work on chain 1 Q9I yielded a screen value of 0.000133. Work on chain 1 Q9E yielded a screen value of 8.49e-05. For chain 1 Q9D, the screen value was 0. For chain 1 Q9Y, the screen value was 0.000186. Work on chain 1 Q9S yielded a screen value of 8.1e-05. With chain 1 Q9L the screen value was 0.00104. chain 1 Q9F was tested, and the screen value was 5.33e-05. chain 1 Q9W showed a screen value of 0.000575. chain 1 Q9M showed a screen value of 0.000681. chain 1 Q9N was tested, and the screen value was 0. With chain 1 Q9G the screen value was 0.000111. chain 1 V15G gave a screen value of 0. Variant chain 1 V15N has a screen value of 0. With chain 1 V15M the screen value was 8.76e-05. chain 1 V15P gave a screen value of 0. With chain 1 V15A the screen value was 0.000191. For chain 1 V15W, the screen value was 0.000109. Work on chain 1 V15S yielded a screen value of 2.82e-05. chain 1 F8Y showed a screen value of 1.9e-05. chain 1 F8P showed a screen value of 7.93e-05. Variant chain 1 F8K has a screen value of 0. chain 1 F8W was tested, and the screen value was 0.000346. Variant chain 1 F8R has a screen value of 0. Variant chain 1 F8N has a screen value of 0.000113. Variant chain 1 F8M has a screen value of 0.000128. For chain 1 S7W, the screen value was 0.000517. Work on chain 1 S7Q yielded a screen value of 0.000194. chain 1 S7F was tested, and the screen value was 3.36e-05. chain 1 S7L gave a screen value of 0.000105. For chain 1 S7P, the screen value was 2.82e-05. chain 1 S7K was tested, and the screen value was 6.18e-05. chain 1 S7N was tested, and the screen value was 5.84e-05. In the case of chain 1 S7T, the screen value is reported as 6.52e-05. Variant chain 1 D5P has a screen value of 0.000202. For chain 1 D5Q, the screen value was 2.45e-05. chain 1 D5K gave a screen value of 1.66e-05. Work on chain 1 D5A yielded a screen value of 0.000323. For chain 1 D5V, the screen value was 0.000143. chain 1 D5F was tested, and the screen value was 3.53e-05. chain 1 D5Y was tested, and the screen value was 8.89e-05. chain 1 D5H showed a screen value of 6.55e-05. In the case of chain 1 D5M, the screen value is reported as 0.000189. Work on chain 1 D5I yielded a screen value of 1.66e-05. Work on chain 1 D5G yielded a screen value of 0.00021. For chain 1 D5L, the screen value was 0.000477. For chain 1 D5S, the screen value was 0.00089. chain 1 D5T showed a screen value of 0.000201. Variant chain 1 D5W has a screen value of 0.000664.
